Consider two molecules from patent US20200222503A1 (published 2020).

Experiment [1] deals with murine PD-L1 on CHOK1 cells (murine, UniProt Q9EP73 19-290). The experiment can be described thus: flow.
The target of experiment [2] is T1, murine OX40 on CHOK1 cells (murine, UniProt P47741 20-272).
T1 chain: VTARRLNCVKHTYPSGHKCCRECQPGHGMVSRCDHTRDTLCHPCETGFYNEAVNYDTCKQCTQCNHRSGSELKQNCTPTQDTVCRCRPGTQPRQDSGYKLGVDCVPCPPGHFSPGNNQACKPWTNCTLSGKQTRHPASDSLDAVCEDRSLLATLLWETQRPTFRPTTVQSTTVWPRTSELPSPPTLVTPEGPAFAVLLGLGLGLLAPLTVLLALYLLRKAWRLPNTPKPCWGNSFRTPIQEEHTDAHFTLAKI
In words: flow cytometry cell binding.

Experiment [3] concerns the target T2, murine PD-L2 on CHOK1 cells (murine, UniProt Q9WUL5 20-247).
T2 chain: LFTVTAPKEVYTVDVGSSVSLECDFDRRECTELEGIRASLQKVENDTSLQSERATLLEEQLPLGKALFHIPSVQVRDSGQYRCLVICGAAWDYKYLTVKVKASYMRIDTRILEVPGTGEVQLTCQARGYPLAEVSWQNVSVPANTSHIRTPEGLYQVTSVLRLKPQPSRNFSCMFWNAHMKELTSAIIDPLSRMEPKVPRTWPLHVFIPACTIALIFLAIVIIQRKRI
In words: flow cytometry cell binding. A general note: Flow cytometry measures light scatter and fluorescence of single cells or particles in a stream.

For experiment [4], the target named is mCD40L-Fc. In words: SPR. Background: Surface plasmon resonance follows binding to a sensor surface in real time, without labels.

Chain of murine PD-L1 on CHOK1 cells (Q9EP73 19-290): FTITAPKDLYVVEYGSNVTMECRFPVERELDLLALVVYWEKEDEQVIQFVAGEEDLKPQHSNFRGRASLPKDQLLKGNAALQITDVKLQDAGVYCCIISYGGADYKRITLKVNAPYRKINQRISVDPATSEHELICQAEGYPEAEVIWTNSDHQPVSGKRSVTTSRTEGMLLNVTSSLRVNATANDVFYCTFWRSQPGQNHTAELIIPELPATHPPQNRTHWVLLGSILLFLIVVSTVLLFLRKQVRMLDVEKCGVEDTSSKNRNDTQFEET

B1: murine PD-1-Fc-OX40L chimeric protein (Fc fusion)
chain: LEVPNGPWRSLTFYPAWLTVSEGANATFTCSLSNWSEDLMLNWNRLSPSNQTEKQAAFCNGLSQPVQDARFQIIQLPNRHDFHMNILDTRRNDSGIYLCGAISLHPKAKIEESPGAELVVTERILETSTRYPSPSPKPEGRFQGMSSSPAKDPPIQRLRGAVTRCEDGQLFISSYKNEYQTMEVQNNSVVIKCDGLYIIYLKGSFFQEVKIDLHFREDHNPISIPMLNDGRRIVFTVVASLAFKDKVYLTVNAPDTLCEHLQINDGELIVVQLTPGYCAPEGSYHSTVNQVPL
On to B1, for which the EC50 in experiment [1] was 27.8 nM; in experiment [2] it was 6.28 nM; in experiment [3], 47.7 nM.

B2: mCD40 (receptor)
chain: VTCSDKQYLHDGQCCDLCQPGSRLTSHCTALEKTQCHPCDSGEFSAQWNREIRCHQHRHCEPNQGLRVKKEGTAESDTVCTCKEGQHCTSKDCEACAQHTPCIPGFGVMEMATETTDTVCHPCPVGFFSNQSSLFEKCYPWTSCEDKNLEVLQKGTSQTNVICGLKSRMR
Molecule B2 gave a Kd in experiment [4] of 3.23 nM.

A word on the EC50: it is the concentration needed to bring the measured effect to its halfway point. Read a low EC50 as a more potent agent. As usually defined, the Kd is the constant that tells how readily two partners part at equilibrium.
